# Test results as given in article PMC7577971, “Antibody-mediated disruption of the SARS-CoV-2 spike glycoprotein” (Nature Communications, 2020).
# Molecular target: T1, stabilised, trimeric ectodomain of the SARS-CoV-2 spike glycoprotein (FUR 2P) (SARS-CoV-2, Wuhan-Hu-1 (YP_009724390.1), R682S | R685S | K986P | V987P)
# T1 construct: also called S trimer; trimeric spike
# Test: BLI
# Conditions: both partners purified
binder,measurement,value
"CR3022 Fab (tag cleaved with TEV, as used in binding assays) (Fab, V domains shown) VH: QMQLVQSGTEVKKPGESLKISCKGSGYGFITYWIGWVRQMPGKGLEWMGIIYPGDSETRYSPSFQGQVTISADKSINTAYLQWSSLKASDTAIYYCAGGSGISTPMDVWGQGTTVTVAS VL: not shown",Kd,80 nM
